Here are results for one substance from patent publication US20060252677A1.

For the experiment, the target named is NMDA receptor (NMDA receptor/2B subunit and NMDA receptor I) expressed in Xenopus oocytes (human) (UniProt Q13224). The experiment can be described thus: cell-based or functional assay.

Protein-X (novel PSD) expressed from injected RNA in Xenopus oocytes, sequence (Q5T2T1 whole entry K322R): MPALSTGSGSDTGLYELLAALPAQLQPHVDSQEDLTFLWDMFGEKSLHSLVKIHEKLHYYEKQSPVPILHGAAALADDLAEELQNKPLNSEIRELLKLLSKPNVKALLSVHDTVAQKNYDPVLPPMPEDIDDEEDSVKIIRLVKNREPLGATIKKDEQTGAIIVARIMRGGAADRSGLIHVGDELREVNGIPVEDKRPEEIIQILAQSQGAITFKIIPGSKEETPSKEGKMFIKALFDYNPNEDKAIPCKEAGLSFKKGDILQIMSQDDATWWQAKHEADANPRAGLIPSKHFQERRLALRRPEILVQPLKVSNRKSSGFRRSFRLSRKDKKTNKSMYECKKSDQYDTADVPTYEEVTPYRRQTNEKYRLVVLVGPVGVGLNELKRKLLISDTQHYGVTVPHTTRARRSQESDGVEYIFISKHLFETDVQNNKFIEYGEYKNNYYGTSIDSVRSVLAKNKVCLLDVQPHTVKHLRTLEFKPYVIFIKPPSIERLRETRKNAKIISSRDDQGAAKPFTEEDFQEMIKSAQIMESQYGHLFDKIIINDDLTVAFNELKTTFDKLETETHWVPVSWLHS

In the case of “Protein-X (novel PSD) expressed from injected RNA in Xenopus oocytes (from UniProt Q5T2T1 1-576)”, the Current variation (µA), Average amounted to 0.55 µA; the Current variation (µA), Standard deviation stood at 0.15 µA; the Current variation (µA), oocyte #1, 1000 µM Glu + 10 µM Gly was 0.6 µA; the Current variation (µA), oocyte #2, 1000 µM Glu + 10 µM Gly amounted to 0.81 µA. Further, the Current variation (µA), oocyte #3, 1000 µM Glu + 10 µM Gly is 0.38 µA; the Current variation (µA), oocyte #4, 1000 µM Glu + 10 µM Gly is 0.57 µA; the Current variation (µA), oocyte #5, 1000 µM Glu + 10 µM Gly stood at 0.41 µA; the Current variation (µA), oocyte #6, 1000 µM Glu + 10 µM Gly came to 0.54 µA. The current response to the ligand stimulation, against oocytes expressing PSD-95 with the NMDA receptor is 1.5 times.
